Biological target: T1, Wild-type (WT) receptor-binding domain (RBD) of SARS-CoV-2 spike protein, 330-528 aa fragment (SARS-CoV-2, wild type (Wuhan-1), UniProt P0DTC2)
T1 construct: also called WT RBD; wild-type RBD
Assay: SPR
Settings: both partners purified

B1: SARS-CoV-2 neutralizing antibody P4A1 (full-length IgG1) (antibody, V domains shown)
VH: EVQLVESGGGLIQPGGSLRLSCAASGFIVSSNYMSWVRQAPGKGLEWVSIIYSGGSTFYADSVKGRFTISRDNSKNTLYLQMNSLRVEDTAVYYCARDLQELGSLDYWGQGTLVTVSS
VL: DIQMTQSPSSVSASVGDRVTITCRASQGISSWLAWYQQKPGKAPKLLIYAASSLQSGVPSRFSGSGSGTDFTLTISSLQPEDFATYYCQEANSFPYTFGQGTKLEIK
notes: also called P4AI; Ab
Question: B1 was tested. Which kon did it give?
Answer: 770000 M⁻¹ s⁻¹

Reference: paper PMC9775641, “Conformational Dynamics of the Receptor-Binding Domain of the SARS-CoV-2 Spike Protein” (Biomedicines, 2022)
